What was measured:
ztnf4 (human) = ztnf4 (human) (UniProt Q9Y275)
soluble I125-ztnf4 = target: T1, soluble I125-ztnf4 (human, UniProt Q9Y275 134-285, limits assumed, 125I label); test: Scatchard analysis of soluble I125-ztnf4 binding to stable BHK transfectants expressing BCMA
T1 construct: also called ztnf4 sol

Molecule: BCMA-Ig (from UniProt Q9Y275) (Fc fusion)
- IC50 (read off the curve), inhibition of ztnf4-driven human B cell proliferation (ztnf4 (human)): 0.1 µg/mL

B1: TACI-Ig soluble receptor (TACI-Fc4) (Fc fusion, part only; not given: Fc4 carrier, part only)
chain, part: MSGLGRSRRGGRSRVDQEERFPQGLWTGVAMRSCPEEQYWDPLLGTCMSCKTICNHQSQRTCAAFCRSLSCRKEQGKFYDHLLRDCISCASICGQHPKQCAYFCENKLRSPVNLPPELRRQRSGEVENNSDNSGRYQGLEHRGSEASPALPGLKLSADQVALVYS
- IC50 (read off the curve), inhibition of ztnf4-driven human B cell proliferation (ztnf4 (human)): 0.1 µg/mL

B2: BCMA expressed on cells (receptor)
chain: MLQMAGQCSQNEYFDSLLHACIPCQLRCSSNTPPLTCQRYCNASVTNSVKGTNAILWTCLGLSLIISLAVFVLMFLLRKISSEPLKDEFKNTGSGLLGMANIDLEKSRTGDEIILPRGLEYTVEECTCEDCIKSKPKVDSDHCFPLPAMEEGATILVTTKTNDYCKSLPAALSATEIEKSISAR
notes: also called BCMA-BHK
- Kd (soluble I125-ztnf4): 1.25 nM

Reference: patent publication US20060286093A1 (ZymoGenetics, published 2006)
